Laboratory results as given in the supplement of paper PMC6757056.
± gives the standard deviation of the averaged measurements.

B1: library; a variant is named by its letters at N, in order (parent)
chain: GCUGUCACCGGUGCUUGGUACGUUAUAUUCAGCCGGUCUGAUGAGUCUNNNNNNAGACGAAACAGC

What was measured:
(6R,S)-folinic acid [1] = variants of: B1; experiment: normalized RNA/DNA level without ligand (relative to sTRSVctl = 100) (log10 (% of sTRSVctl)); HEK293T overexpressing SLC46A1; higher = less ribozyme self-cleavage, higher mRNA level; details: without (6R,S)-folinic acid; ligand present: no
Method in brief: (§1)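 HEK293T cells were transfected with library plasmids carrying ribozyme switches linked to an mCherry reporter, or an eGFP reporter in some ligand experiments, at 4 µg per well of a 6-well plate, with any ligand added 1 h beforehand. After 72 h, total RNA was extracted with EDTA, reverse-transcribed, amplified, barcoded and sequenced. RNA level was defined as RNA reads over DNA reads, normalized to a spiked-in non-cleaving sequence or to the top-ranked sequences. That value was multiplied by 100 and converted to log10, the top set was 25 sequences, and only sequences with ≥100 DNA reads were retained.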

(6R,S)-folinic acid [2] = variants of: B1; experiment: normalized RNA/DNA level with ligand (relative to sTRSVctl = 100) (log10 (% of sTRSVctl)); HEK293T overexpressing SLC46A1; ligand concentration (+) RNA-Seq: 6 mM; higher = less ribozyme self-cleavage, higher mRNA level; details: with (6R,S)-folinic acid; ligand present: yes
Method in brief: as §1

Variant	normalized RNA/DNA level without ligand (log10) ((6R,S)-folinic acid [1])	normalized RNA/DNA level with ligand (log10) ((6R,S)-folinic acid [2])
CGGGGC	2.03 ± 0.023	2.003 ± 0.014
GGGUCC	2.05 ± 0.022	2.06 ± 0.04
GGGUCU	2.064 ± 0.0032	2.06 ± 0.018
GGGUCA	2.078 ± 0.0065	2.09 ± 0.053
AGGGUU	2.021 ± 0.0045	2.01 ± 0.035
AGGGUA	1.968 ± 0.019	2.02 ± 0.0085
AGGGUG	1.952 ± 0.0024	2.04 ± 0.028
AGGGUC	2.051 ± 0.0057	2.03 ± 0.063
GGGUUA	2.052 ± 0.0032	2.034 ± 0.01
GGGUUC	2.027 ± 0.006	2.001 ± 0.0053
GGGUUU	2.029 ± 0.015	2.04 ± 0.036
CGGGUC	2.078 ± 0.0029	2.06 ± 0.038
CGGGUU	2 ± 0.024	2 ± 0.051
CGGGUG	1.976 ± 0.0081	2.01 ± 0.047
GGGGUC	2.023 ± 0.0058	2.04 ± 0.048
GGGGUA	1.988 ± 0.0044	1.99 ± 0.028
GGGGUG	1.997 ± 0.011	2.061 ± 0.019
GGGGUU	2.014 ± 0.0056	2.02 ± 0.034
CGGGCU	2.09 ± 0.021	2.06 ± 0.03
CGGGCA	2.059 ± 0.0067	2.04 ± 0.0044

Variant	normalized RNA/DNA level without ligand (log10) ((6R,S)-folinic acid [1])	normalized RNA/DNA level with ligand (log10) ((6R,S)-folinic acid [2])
CGGGCG	1.993 ± 0.005	2.04 ± 0.043
CGGGCC	2.072 ± 0.0092	2.035 ± 0.019
GGGGGG	2.045 ± 0.019	2.04 ± 0.061
GGGGGU	2.037 ± 0.0098	2.05 ± 0.052
GGGGGC	1.94 ± 0.038	2.03 ± 0.022
GGGGGA	2.057 ± 0.02	2.05 ± 0.043
UGGGGA	1.836 ± 0.0073	1.99 ± 0.036
UGGGGG	1.8 ± 0.017	2.008 ± 0.018
UGGGGC	2.024 ± 0.01	2.02 ± 0.023
UGGGGU	1.94 ± 0.026	2.0251 ± 0.00068
GGGGCG	2.073 ± 0.016	2.06 ± 0.045
GGGGCU	2.079 ± 0.017	2.055 ± 0.0086
GGGGCA	2.054 ± 0.0064	2.02 ± 0.025
GGGCUC	2.1006 ± 0.0021	2.1 ± 0.021
GGGCUA	2.048 ± 0.0023	2.05 ± 0.033
GGGCUG	2.044 ± 0.0043	2.03 ± 0.046
GGGCUU	2.143 ± 0.0064	2.1 ± 0.027
UGGGAA	1.8778 ± 0.0006	1.98 ± 0.028
UGGGAC	1.99 ± 0.03	2.015 ± 0.0073
CGGUUU	2.033 ± 0.017	2.056 ± 0.012

Variant	normalized RNA/DNA level without ligand (log10) ((6R,S)-folinic acid [1])	normalized RNA/DNA level with ligand (log10) ((6R,S)-folinic acid [2])
CGGUUG	2.026 ± 0.02	2 ± 0.065
CGGUUC	2.02 ± 0.0095	2.01 ± 0.07
CGGUCA	2.005 ± 0.014	1.98 ± 0.064
CGGUCU	2.1 ± 0.035	2.05 ± 0.049
CGGUCC	2.066 ± 0.013	2.03 ± 0.033
CGGUCG	2.042 ± 0.0075	2.04 ± 0.021
CGGGAG	1.932 ± 0.0051	2 ± 0.023
AGGUAU	2.009 ± 0.0096	2.04 ± 0.052
AGGUAG	1.912 ± 0.0057	2 ± 0.077
AGGUAA	1.95 ± 0.024	1.98 ± 0.02
AGGUAC	1.982 ± 0.0027	1.995 ± 0.0077
AGGGCG	1.962 ± 0.008	2.02 ± 0.027
AGGGCA	2.033 ± 0.02	2.03 ± 0.042
AGGGCU	2.022 ± 0.0078	2.05 ± 0.024
AGGGCC	2.07 ± 0.023	2.06 ± 0.06
CGGCUU	2.04 ± 0.04	2.02 ± 0.022
CGGCUA	2.11 ± 0.027	2.067 ± 0.011
CGGCUG	2.0746 ± 0.002	2.04 ± 0.027
